Article PMC5501724, “Structural Basis for Specific Interaction of TGFβ Signaling Regulators SARA/Endofin with HD-PTP” (Structure(London, England:1993), 2017)

B1: endofin 22-mer peptide (first 22 residues of endofin) [human] / His6-HD-PTP_(Bro1) (1-361) [human] (parent complex)
chain 1: MDSYFKAAVSDLDKLLDDFEQN
chain 2: MEAVPRMPMIWLDLKEAGDFHFQPAVKKFVLKNYGENPEAYNEELKKLELLRQNAVRVPRDFEGCSVLRKYLGQLHYLQSRVPMGSGQEAAVPVTWTEIFSGKSVAHEDIKYEQACILYNLGALHSMLGAMDKRVSEEGMKVSCTHFQCAAGAFAYLREHFPQAYSVDMSRQILTLNVNLMLGQAQECLLEKSMLDNRKSFLVARISAQVVDYYKEACRALENPDTASLLGRIQKDWKKLVQMKIYYFAAVAHLHMGKQAEEQQKFGERVAYFQSALDKLNEAIKLAKGQPDTVQDALRFTMDVIGGKYNSAKKDNDFIYHEAVPALDTLQPVKGAPLVKPLPVNPTDPAVTGPDIFAKLV
B2: endofin_(1–84)-strep, in vitro translated [modified: 35S-methionine; 35S-methionine] [human] / His6-HD-PTP_(Bro1-CC) (1-714), bacterially expressed [human] (parent complex)
chain 1: MDSYFKAAVSDLDKLLDDFEQNPDEQDYLQDVQNAYDSNHCSVSSELASSQRTSLLPKDQECVNSCASSETSYGTNESSLNEKT
chain 2: MEAVPRMPMIWLDLKEAGDFHFQPAVKKFVLKNYGENPEAYNEELKKLELLRQNAVRVPRDFEGCSVLRKYLGQLHYLQSRVPMGSGQEAAVPVTWTEIFSGKSVAHEDIKYEQACILYNLGALHSMLGAMDKRVSEEGMKVSCTHFQCAAGAFAYLREHFPQAYSVDMSRQILTLNVNLMLGQAQECLLEKSMLDNRKSFLVARISAQVVDYYKEACRALENPDTASLLGRIQKDWKKLVQMKIYYFAAVAHLHMGKQAEEQQKFGERVAYFQSALDKLNEAIKLAKGQPDTVQDALRFTMDVIGGKYNSAKKDNDFIYHEAVPALDTLQPVKGAPLVKPLPVNPTDPAVTGPDIFAKLVPMAAHEASSLYSEEKAKLLREMMAKIEDKNEVLDQFMDSMQLDPETVDNLDAYSHIPPQLMEKCAALSVRPDTVRNLVQSMQVLSGVFTDVEASLKDIRDLLEEDELLEQKFQEAVGQAGAISITSKAELAEVRREWAKYMEVHEKASFTNSELHRAMNLHVGNLRLLSGPLDQVRAALPTPALSPEDKAVLQNLKRILAKVQEMRDQRVSLEQQLRELIQKDDITASLVTTDHSEMKKLFEEQLKKYDQLKVYLEQNLAAQDRVLCALTEANVQYAAVRRVLSDLDQKWNSTLQTLVASYEAYEDLMKKSQEGRDFYADLESKVAALLERTQSTCQAREAARQQLLDRELKK
B3: HA-HD-PTP_(Bro1-CC) wild-type, expressed in cells [human] / endogenous endofin [human (endogenous in HEK293)] (parent complex)
chain 1: B2 chain 2
chain 2: MDSYFKAAVSDLDKLLDDFEQNPDEQDYLQDVQNAYDSNHCSVSSELASSQRTSLLPKDQECVNSCASSETSYGTNESSLNEKTLKGLTSIQNEKNVTGLDLLSSVDGGTSDEIQPLYMGRCSKPICDLISDMGNLVHATNSEEDIKKLLPDDFKSNADSLIGLDLSSVSDTPCVSSTDHDSDTVREQQNDISSELQNREIGGIKELGIKVDTTLSDSYNYSGTENLKDKKIFNQLESIVDFNMSSALTRQSSKMFHAKDKLQHKSQPCGLLKDVGLVKEEVDVAVITAAECLKEEGKTSALTCSLPKNEDLCLNDSNSRDENFKLPDFSFQEDKTVIKQSAQEDSKSLDLKDNDVIQDSSSALHVSSKDVPSSLSCLPASGSMCGSLIESKARGDFLPQHEHKDNIQDAVTIHEEIQNSVVLGGEPFKENDLLKQEKCKSILLQSLIEGMEDRKIDPDQTVIRAESLDGGDTSSTVVESQEGLSGTHVPESSDCCEGFINTFSSNDMDGQDLDYFNIDEGAKSGPLISDAELDAFLTEQYLQTTNIKSFEENVNDSKSQMNQIDMKGLDDGNINNIYFNAEAGAIGESHGINIICEIVDKQNTIENGLSLGEKSTIPVQQGLPTSKSEITNQLSVSDINSQSVGGARPKQLFSLPSRTRSSKDLNKPDVPDTIESEPSTADTVVPITCAIDSTADPQVSFNSNYIDIESNSEGGSSFVTANEDSVPENTCKEGLVLGQKQPTWVPDSEAPNCMNCQVKFTFTKRRHHCRACGKVFCGVCCNRKCKLQYLEKEARVCVVCYETISKAQAFERMMSPTGSNLKSNHSDECTTVQPPQENQTSSIPSPATLPVSALKQPGVEGLCSKEQKRVWFADGILPNGEVADTTKLSSGSKRCSEDFSPLSPDVPMTVNTVDHSHSTTVEKPNNETGDITRNEIIQSPISQVPSVEKLSMNTGNEGLPTSGSFTLDDDVFAETEEPSSPTGVLVNSNLPIASISDYRLLCDINKYVCNKISLLPNDEDSLPPLLVASGEKGSVPVVEEHPSHEQIILLLEGESFHPVTFVLNANLLVNVKFIFYSSDKYWYFSTNGLHGLGQAEIIILLLCLPNEDTIPKDIFRLFITIYKDALKGKYIENLDNITFTESFLSSKDHGGFLFITPTFQKLDDLSLPSNPFLCGILIQKLEIPWAKVFPMRLMLRLGAEYKAYPAPLTSIRGRKPLFGEIGHTIMNLLVDLRNYQYTLHNIDQLLIHMEMGKSCIKIPRKKYSDVMKVLNSSNEHVISIGASFSTEADSHLVCIQNDGIYETQANSATGHPRKVTGASFVVFNGALKTSSGFLAKSSIVEDGLMVQITPETMNGLRLALREQKDFKITCGKVDAVDLREYVDICWVDAEEKGNKGVISSVDGISLQGFPSEKIKLEADFETDEKIVKCTEVFYFLKDQDLSILSTSYQFAKEIAMACSAALCPHLKTLKSNGMNKIGLRVSIDTDMVEFQAGSEGQLLPQHYLNDLDSALIPVIHGGTSNSSLPLEIELVFFIIEHLF
B4: endofin 22-mer peptide (first 22 residues of endofin) [human] / His6-HD-PTP_(Bro1-CC) (1-714), bacterially expressed [human] (parent complex)
chain 1: MDSYFKAAVSDLDKLLDDFEQN
chain 2: B2 chain 2

Variants of: B1
Experiment: biosensor binding (sensogram); parent: 110; read off a plot

response [RU] | Variant
~0 | chain 1 MDSYFKAAVSDLDKPLDDFEQN [chain 1 L15P]

Variants of: B2
Experiment: co-immunoprecipitation with anti-His6 antibody, quantitation of blots; three independent experiments (mean ± SD); parent: 100; read off a plot

percent of parent | Variant
~6 % binding (rel. to WT) | chain 1 MDSYFKAAVSDLDKPLDDFEQNPDEQDYLQDVQNAYDSNHCSVSSELASSQRTSLLPKDQECVNSCASSETSYGTNESSLNEKT [chain 1 L15P]

Variants of: B3
Experiment: anti-HA immunoprecipitation from cells, anti-endofin immunoblot, quantitation; four independent experiments (mean ± SD); parent: 100; read off a plot

Variant | percent of parent
chain 1 L202D | ~9.5 % of WT
chain 1 F62E | ~30 % of WT
chain 1 H125A | ~23 % of WT

The remaining lines, values ahead:

percent of parent | Variant
~59 % of WT | chain 1 R198M
~68 % of WT | chain 1 R69L
~13 % of WT | chain 1 T145K

Variants of: B4
Experiment: biosensor binding (sensogram); parent: 80; read off a plot

response [RU] | Variant
~0 | chain 1 MDSYFKAAVSDLDKPLDDFEQN [chain 1 L15P]
